Source: US20210246166A1 (Bayer, published 2021)
Bridge positions count the residues as written; N and C are the ends. Square brackets hold non-standard residues; d marks the D form. Ends that are not written are not given here. Pro(3S,4R-methano) = O=C(O)[C@H]1NC[C@@H]2C[C@@H]21; Phe(3-COOH) = N[C@@H](Cc1cccc(C(=O)O)c1)C(=O)O; Oic = O=C(O)[C@@H]1C[C@@H]2CCCC[C@@H]2N1; tBuAla = CC(C)(C)C[C@H](N)C(=O)O; Pen = CC(C)(S)[C@H](N)C(=O)O; NMeC = CN[C@@H](CS)C(=O)O; PEG3 = NCCOCCOCCOCCC(=O)O; Nva = CCC[C@H](N)C(=O)O; Abu = CC[C@H](N)C(=O)O; PEG2 = NCCOCCOCCC(=O)O; Sar = CNCC(=O)O

Key:
[1] = target: T1, recombinant human MASP1 active protease (amino acids 297-699, C-terminal His Tag) (human, UniProt P48740 297-699); assay: cell-based or functional assay
T1 sequence: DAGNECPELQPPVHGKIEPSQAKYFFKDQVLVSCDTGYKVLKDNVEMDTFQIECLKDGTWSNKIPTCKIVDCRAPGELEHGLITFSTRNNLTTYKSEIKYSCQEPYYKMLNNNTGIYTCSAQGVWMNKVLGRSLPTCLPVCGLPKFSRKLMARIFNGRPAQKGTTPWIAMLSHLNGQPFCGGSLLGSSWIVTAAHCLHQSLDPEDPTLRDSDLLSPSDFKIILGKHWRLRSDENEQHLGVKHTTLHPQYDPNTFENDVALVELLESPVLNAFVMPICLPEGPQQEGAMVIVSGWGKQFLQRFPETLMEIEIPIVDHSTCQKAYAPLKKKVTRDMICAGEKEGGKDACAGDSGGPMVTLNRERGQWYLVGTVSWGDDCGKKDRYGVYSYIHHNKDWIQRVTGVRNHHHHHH

[2] = target: recombinant human MASP2 active protease (amino acids 297-686, C-terminal His Tag) (human, UniProt O00187 297-686); assay: cell-based or functional assay
recombinant human MASP2 active protease (amino acids 297-686, C-terminal His Tag), sequence (O00187 other isoform, or with tags, fused parts or gaps limits assumed): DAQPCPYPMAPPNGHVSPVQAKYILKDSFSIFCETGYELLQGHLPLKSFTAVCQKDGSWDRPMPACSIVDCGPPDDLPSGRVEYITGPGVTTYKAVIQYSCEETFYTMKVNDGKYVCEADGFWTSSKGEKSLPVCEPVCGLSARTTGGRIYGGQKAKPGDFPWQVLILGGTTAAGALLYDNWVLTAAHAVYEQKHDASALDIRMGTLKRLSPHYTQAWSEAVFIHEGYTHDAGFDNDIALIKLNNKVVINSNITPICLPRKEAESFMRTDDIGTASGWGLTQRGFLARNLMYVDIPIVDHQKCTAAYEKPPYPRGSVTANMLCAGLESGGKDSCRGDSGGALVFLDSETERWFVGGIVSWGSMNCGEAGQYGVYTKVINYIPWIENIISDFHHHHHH

human MASP1 IC50 [1] [nM] | human MASP2 IC50 [2] [nM] | Binder
2.2 | 98 | LICSRS[tBuAla]PPI[NMeC]I-NH2 (disulfide 3-11; N-terminus assumed; SMILES CC[C@H](C)[C@H](NC(=O)[C@@H]1CSSC[C@H](NC(=O)[C@@H](NC(=O)[C@@H](N)CC(C)C)[C@@H](C)CC)C(=O)N[C@@H](CO)C(=O)N[C@@H](CCCNC(=N)N)C(=O)N[C@@H](CO)C(=O)N[C@@H](CC(C)(C)C)C(=O)N2CCC[C@H]2C(=O)N2CCC[C@H]2C(=O)N[C@@H]([C@@H](C)CC)C(=O)N1C)C(N)=O) [LIC+SRS-((tBu)A)-PPI-((N-Me)C)+I-NH2]
2 | 42 | [Sar]ICSRS[tBuAla]PPI[Pen]IP[Phe(3-COOH)]-NH2 (disulfide 3-11; N-terminus assumed; SMILES CC[C@H](C)[C@H](NC(=O)CNC)C(=O)N[C@H]1CSSC(C)(C)[C@@H](C(=O)N[C@H](C(=O)N2CCC[C@H]2C(=O)N[C@@H](Cc2cccc(C(=O)O)c2)C(N)=O)[C@@H](C)CC)NC(=O)[C@H]([C@@H](C)CC)NC(=O)[C@@H]2CCCN2C(=O)[C@@H]2CCCN2C(=O)[C@H](CC(C)(C)C)NC(=O)[C@H](CO)NC(=O)[C@H](CCCNC(=N)N)NC(=O)[C@H](CO)NC1=O) [((N-Me)G)-IC+SRS-((tBu)A)-PPI-(Pen)+IP-((3-Carboxy)F)-NH2]
0.93 | 68 | [Sar]ICSRSLP[Oic]I[Pen]IPD[PEG2]-NH2 (disulfide 3-11; N-terminus assumed; SMILES CC[C@H](C)[C@H](NC(=O)CNC)C(=O)N[C@H]1CSSC(C)(C)[C@@H](C(=O)N[C@H](C(=O)N2CCC[C@H]2C(=O)N[C@@H](CC(=O)O)C(=O)NCCOCCOCCC(N)=O)[C@@H](C)CC)NC(=O)[C@H]([C@@H](C)CC)NC(=O)[C@@H]2C[C@@H]3CCCC[C@@H]3N2C(=O)[C@@H]2CCCN2C(=O)[C@H](CC(C)C)NC(=O)[C@H](CO)NC(=O)[C@H](CCCNC(=N)N)NC(=O)[C@H](CO)NC1=O) [((N-Me)G)-IC+SRSLP-(Oic)-I-(Pen)+IPD-(PEG1(10 atoms))-NH2]
2.2 | 51 | [Nva]ICSRS[tBuAla]PPI[Pen]IPD-NH2 (disulfide 3-11; N-terminus assumed; SMILES CCC[C@H](N)C(=O)N[C@H](C(=O)N[C@H]1CSSC(C)(C)[C@@H](C(=O)N[C@H](C(=O)N2CCC[C@H]2C(=O)N[C@@H](CC(=O)O)C(N)=O)[C@@H](C)CC)NC(=O)[C@H]([C@@H](C)CC)NC(=O)[C@@H]2CCCN2C(=O)[C@@H]2CCCN2C(=O)[C@H](CC(C)(C)C)NC(=O)[C@H](CO)NC(=O)[C@H](CCCNC(=N)N)NC(=O)[C@H](CO)NC1=O)[C@@H](C)CC) [(Nva)-IC+SRS-((tBu)A)-PPI-(Pen)+IPD-NH2]
2.2 | 70 | LICSRS[tBuAla]PPI[Pen]IPD-NH2 (disulfide 3-11; N-terminus assumed; SMILES CC[C@H](C)[C@H](NC(=O)[C@@H](N)CC(C)C)C(=O)N[C@H]1CSSC(C)(C)[C@@H](C(=O)N[C@H](C(=O)N2CCC[C@H]2C(=O)N[C@@H](CC(=O)O)C(N)=O)[C@@H](C)CC)NC(=O)[C@H]([C@@H](C)CC)NC(=O)[C@@H]2CCCN2C(=O)[C@@H]2CCCN2C(=O)[C@H](CC(C)(C)C)NC(=O)[C@H](CO)NC(=O)[C@H](CCCNC(=N)N)NC(=O)[C@H](CO)NC1=O) [LIC+SRS-((tBu)A)-PPI-(Pen)+IPD-NH2]
2.1 | 20 | [Sar]ICSRSL[Pro(3S,4R-methano)]PI[Pen]IP-NH2 (disulfide 3-11; N-terminus assumed; SMILES CC[C@H](C)[C@H](NC(=O)CNC)C(=O)N[C@H]1CSSC(C)(C)[C@@H](C(=O)N[C@H](C(=O)N2CCC[C@H]2C(N)=O)[C@@H](C)CC)NC(=O)[C@H]([C@@H](C)CC)NC(=O)[C@@H]2CCCN2C(=O)[C@@H]2[C@H]3C[C@H]3CN2C(=O)[C@H](CC(C)C)NC(=O)[C@H](CO)NC(=O)[C@H](CCCNC(=N)N)NC(=O)[C@H](CO)NC1=O) [((N-Me)G)-IC+SRSL-((1S,2S,5R)-3-azabicyclo[3.1.0]hexane-2-carboxylic acid)-PI-(Pen)+IP-NH2]
2.2 | 120 | [Abu]ICSRS[tBuAla]PPICIPD-NH2 (disulfide 3-11; N-terminus assumed; SMILES CC[C@H](N)C(=O)N[C@H](C(=O)N[C@H]1CSSC[C@@H](C(=O)N[C@H](C(=O)N2CCC[C@H]2C(=O)N[C@@H](CC(=O)O)C(N)=O)[C@@H](C)CC)NC(=O)[C@H]([C@@H](C)CC)NC(=O)[C@@H]2CCCN2C(=O)[C@@H]2CCCN2C(=O)[C@H](CC(C)(C)C)NC(=O)[C@H](CO)NC(=O)[C@H](CCCNC(=N)N)NC(=O)[C@H](CO)NC1=O)[C@@H](C)CC) [(Abu)-IC+SRS-((tBu)A)-PPIC+IPD-NH2]
2.1 | 98 | AICSRSLP[Oic]I[Pen]I-NH2 (disulfide 3-11; N-terminus assumed; SMILES CC[C@H](C)[C@H](NC(=O)[C@H]1NC(=O)[C@H]([C@@H](C)CC)NC(=O)[C@@H]2C[C@@H]3CCCC[C@@H]3N2C(=O)[C@@H]2CCCN2C(=O)[C@H](CC(C)C)NC(=O)[C@H](CO)NC(=O)[C@H](CCCNC(=N)N)NC(=O)[C@H](CO)NC(=O)[C@@H](NC(=O)[C@@H](NC(=O)[C@H](C)N)[C@@H](C)CC)CSSC1(C)C)C(N)=O) [AIC+SRSLP-(Oic)-I-(Pen)+I-NH2]
2.2 | 43 | [Sar]ICSRSLP[Oic]I[Pen]IP-NH2 (disulfide 3-11; also: HCl salt) [((N-Me)G)-IC+SRSLP-(Oic)-I-(Pen)+IP-NH2 (HCl salt)]
2.1 | 96 | [Sar]ICSRSLP[Oic]I[Pen]IPD[PEG3]-NH2 (disulfide 3-11; N-terminus assumed; SMILES CC[C@H](C)[C@H](NC(=O)CNC)C(=O)N[C@H]1CSSC(C)(C)[C@@H](C(=O)N[C@H](C(=O)N2CCC[C@H]2C(=O)N[C@@H](CC(=O)O)C(=O)NCCOCCOCCOCCC(N)=O)[C@@H](C)CC)NC(=O)[C@H]([C@@H](C)CC)NC(=O)[C@@H]2C[C@@H]3CCCC[C@@H]3N2C(=O)[C@@H]2CCCN2C(=O)[C@H](CC(C)C)NC(=O)[C@H](CO)NC(=O)[C@H](CCCNC(=N)N)NC(=O)[C@H](CO)NC1=O) [((N-Me)G)-IC+SRSLP-(Oic)-I-(Pen)+IPD-(PEG2(13 atoms))-NH2]
2.1 | 72 | IICSRS[tBuAla]PPI[Pen]IPD-NH2 (disulfide 3-11; N-terminus assumed; SMILES CC[C@H](C)[C@H](N)C(=O)N[C@H](C(=O)N[C@H]1CSSC(C)(C)[C@@H](C(=O)N[C@H](C(=O)N2CCC[C@H]2C(=O)N[C@@H](CC(=O)O)C(N)=O)[C@@H](C)CC)NC(=O)[C@H]([C@@H](C)CC)NC(=O)[C@@H]2CCCN2C(=O)[C@@H]2CCCN2C(=O)[C@H](CC(C)(C)C)NC(=O)[C@H](CO)NC(=O)[C@H](CCCNC(=N)N)NC(=O)[C@H](CO)NC1=O)[C@@H](C)CC) [IIC+SRS-((tBu)A)-PPI-(Pen)+IPD-NH2]
